# Measurements reported in IntAct's records for PubMed 29892012.
# B1: U3 small nucleolar RNA-associated protein 25 homolog (Homo sapiens), Q68CQ4 (parent)
# chain: MGKRGSRSQSQLLNTLTKKQKKHLRDFGEEHPFYDRVSRKEAKPQICQLSESSDSSDSESDSESEPQQVSGYHRLLATLKNVSEEEEEDEEEEEEEDSIVDDAEMNDEDGGSDVSVEEEMAAESTESPENVALSADPEGKEDGEEPPGTSQTSPEEFTDAKHESLFSLETNFLEEESGDNSSLKASQDPFLQHVNKELKEKAIQAVATNPKTTHELKWPILGQLFFSSKFQKLETFKPPKDIDLKSLHLQKPLESTWTKTNSQFLSGPQKSSSPFTPLQKELFLIMNSYRDLFYPERTALKNGEEIRHVYCLHVINHILKANAQVLGNNSRRRSQKFGVGDDDDFRDQGLTRPKVLIVVPFREAALRVVQLFISLLEGDSKKKIIVSNKKRFQGEYGSDPEERPPNLKRPEDYEAVFVGNIDDHFRIGVAILQRSIRLYAPFYSSDILIASPLGLRTIIGGEGEKKRDFDFLSSIELLIIDQADIYLMQNWEHVLHLMNHMNLLPLDSHGVDFSRVRMWSLNNWSKYYRQTLLFGALQDAQINSVFNKYCVNMQGQVAVRNVPMTGSISHVLVQLPHVFQRMEAENLASVIDARFNFFVNKILPQYRDAVMSHTLIYIPSYFDFVRLRNYFKKEELNFTHICEYTQKSGVSRARHFFLQGEKQFLLFTERFHFYKRYTIKGIRNLIFYELPTYPHFYSEICNMLRATNRGEEATWTCTVLYSKYDAQRLAAVVGVERAAQMLQSNKNVHLFITGEK
# partner: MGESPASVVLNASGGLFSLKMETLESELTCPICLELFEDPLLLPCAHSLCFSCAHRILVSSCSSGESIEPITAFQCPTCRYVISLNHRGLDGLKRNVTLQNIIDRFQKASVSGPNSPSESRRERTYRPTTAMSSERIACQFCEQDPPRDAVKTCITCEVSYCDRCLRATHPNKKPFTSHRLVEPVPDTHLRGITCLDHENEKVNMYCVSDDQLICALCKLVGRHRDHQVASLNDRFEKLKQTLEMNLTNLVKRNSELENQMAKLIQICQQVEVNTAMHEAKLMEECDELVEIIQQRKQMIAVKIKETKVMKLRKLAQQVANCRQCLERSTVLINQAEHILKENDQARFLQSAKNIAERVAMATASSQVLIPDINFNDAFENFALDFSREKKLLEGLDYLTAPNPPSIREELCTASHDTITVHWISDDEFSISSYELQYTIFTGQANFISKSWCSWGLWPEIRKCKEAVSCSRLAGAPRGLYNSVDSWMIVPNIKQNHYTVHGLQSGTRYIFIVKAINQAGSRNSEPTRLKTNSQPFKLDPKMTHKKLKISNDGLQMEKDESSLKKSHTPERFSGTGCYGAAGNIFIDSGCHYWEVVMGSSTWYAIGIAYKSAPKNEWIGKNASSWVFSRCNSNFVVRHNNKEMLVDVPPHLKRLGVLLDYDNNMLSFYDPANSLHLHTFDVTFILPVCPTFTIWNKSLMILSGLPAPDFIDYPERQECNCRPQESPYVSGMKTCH
# B2: E3 ubiquitin-protein ligase TRIM17 (Homo sapiens), Q9Y577 (parent)
# chain: MEAVELARKLQEEATCSICLDYFTDPVMTTCGHNFCRACIQLSWEKARGKKGRRKRKGSFPCPECREMSPQRNLLPNRLLTKVAEMAQQHPGLQKQDLCQEHHEPLKLFCQKDQSPICVVCRESREHRLHRVLPAEEAVQGYKLKLEEDMEYLREQITRTGNLQAREEQSLAEWQGKVKERRERIVLEFEKMNLYLVEEEQRLLQALETEEEETASRLRESVACLDRQGHSLELLLLQLEERSTQGPLQMLQDMKEPLSRKNNVSVQCPEVAPPTRPRTVCRVPGQIEVLRGFLEDVVPDATSAYPYLLLYESRQRRYLGSSPEGSGFCSKDRFVAYPCAVGQTAFSSGRHYWEVGMNITGDALWALGVCRDNVSRKDRVPKCPENGFWVVQLSKGTKYLSTFSALTPVMLMEPPSHMGIFLDFEAGEVSFYSVSDGSHLHTYSQATFPGPLQPFFCLGAPKSGQMVISTVTMWVKG
# partner: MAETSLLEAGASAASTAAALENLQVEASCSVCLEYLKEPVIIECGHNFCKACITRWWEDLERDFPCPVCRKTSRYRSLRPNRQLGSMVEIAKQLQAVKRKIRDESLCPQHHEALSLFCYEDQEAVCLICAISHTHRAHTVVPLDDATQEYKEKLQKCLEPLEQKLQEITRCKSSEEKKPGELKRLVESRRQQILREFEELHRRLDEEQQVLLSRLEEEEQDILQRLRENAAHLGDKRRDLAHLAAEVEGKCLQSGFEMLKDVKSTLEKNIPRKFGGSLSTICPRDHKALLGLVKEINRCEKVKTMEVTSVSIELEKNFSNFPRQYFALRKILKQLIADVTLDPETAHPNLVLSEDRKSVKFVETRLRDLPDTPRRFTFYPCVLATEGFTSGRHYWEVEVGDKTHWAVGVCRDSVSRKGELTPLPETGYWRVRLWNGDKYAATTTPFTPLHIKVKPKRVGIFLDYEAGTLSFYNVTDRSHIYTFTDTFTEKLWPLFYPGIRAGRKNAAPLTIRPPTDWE
# B3: Ribosome production factor 1 (Homo sapiens), Q9H9Y2 (parent)
# chain: MAKAGDKSSSSGKKSLKRKAAAEELQEAAGAGDGATENGVQPPKAAAFPPGFSISEIKNKQRRHLMFTRWKQQQRKEKLAAKKKLKKEREALGDKAPPKPVPKTIDNQRVYDETTVDPNDEEVAYDEATDEFASYFNKQTSPKILITTSDRPHGRTVRLCEQLSTVIPNSHVYYRRGLALKKIIPQCIARDFTDLIVINEDRKTPNGLILSHLPNGPTAHFKMSSVRLRKEIKRRGKDPTEHIPEIILNNFTTRLGHSIGRMFASLFPHNPQFIGRQVATFHNQRDYIFFRFHRYIFRSEKKVGIQELGPRFTLKLRSLQKGTFDSKYGEYEWVHKPREMDTSRRKFHL
# partner: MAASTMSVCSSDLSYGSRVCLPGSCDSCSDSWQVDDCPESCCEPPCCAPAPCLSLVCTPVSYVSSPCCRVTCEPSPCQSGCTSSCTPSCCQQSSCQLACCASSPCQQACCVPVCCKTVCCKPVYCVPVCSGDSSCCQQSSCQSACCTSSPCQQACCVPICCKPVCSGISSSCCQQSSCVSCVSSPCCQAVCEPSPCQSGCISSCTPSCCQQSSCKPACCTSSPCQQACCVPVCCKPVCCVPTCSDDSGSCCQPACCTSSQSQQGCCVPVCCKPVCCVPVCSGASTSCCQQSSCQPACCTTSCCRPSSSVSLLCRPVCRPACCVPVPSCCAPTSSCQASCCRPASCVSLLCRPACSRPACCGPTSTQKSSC
# B4: AP-1 complex subunit sigma-2 (Homo sapiens), P56377 (parent)
# chain: MQFMLLFSRQGKLRLQKWYVPLSDKEKKKITRELVQTVLARKPKMCSFLEWRDLKIVYKRYASLYFCCAIEDQDNELITLEIIHRYVELLDKYFGSVCELDIIFNFEKAYFILDEFLLGGEVQETSKKNVLKAIEQADLLQEEAETPRSVLEEIGLT
# B5: ADP/ATP translocase 3 (Homo sapiens), P12236 (parent)
# chain: MTEQAISFAKDFLAGGIAAAISKTAVAPIERVKLLLQVQHASKQIAADKQYKGIVDCIVRIPKEQGVLSFWRGNLANVIRYFPTQALNFAFKDKYKQIFLGGVDKHTQFWRYFAGNLASGGAAGATSLCFVYPLDFARTRLAADVGKSGTEREFRGLGDCLVKITKSDGIRGLYQGFSVSVQGIIIYRAAYFGVYDTAKGMLPDPKNTHIVVSWMIAQTVTAVAGVVSYPFDTVRRRMMMQSGRKGADIMYTGTVDCWRKIFRDEGGKAFFKGAWSNVLRGMGGAFVLVLYDELKKVI
# B6: Late cornified envelope protein 1B (Homo sapiens), Q5T7P3 (parent)
# chain: MSCQQNQQQCQPPPKCIPKCPPKCLTPRCPPKCPPKCPPVSSCCSVSSGGCCGSSSGGSCGSSSGGCCSSGGGGCCLSHHRRRRSHCHRPQSSGCCSQPSGGSSCCGGGSGQHSGGCC
# partner: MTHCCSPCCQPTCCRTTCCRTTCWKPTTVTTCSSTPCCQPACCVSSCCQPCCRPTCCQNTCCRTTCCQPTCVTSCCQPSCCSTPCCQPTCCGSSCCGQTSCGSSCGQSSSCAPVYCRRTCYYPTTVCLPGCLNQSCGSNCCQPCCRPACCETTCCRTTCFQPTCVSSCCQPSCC
# Variants of: B1
# Settings: with trim1_human MID2, Q9UJV3
row,effect of a mutation on the interaction,Variant
1,with no effect,D399E

# Variants of: B2
# Settings: with tri39_human TRIM39, Q9HCM9
row,effect of a mutation on the interaction,Variant
1,with no effect,R159T

# Variants of: B3
# Settings: with kr107_human KRTAP10-7, P60409
row,effect of a mutation on the interaction,Variant
1,with no effect,P49T

# Variants of: B4
# Settings: with ap1g1_human AP1G1, O43747
# Chain of ap1g1_human AP1G1, O43747 (O43747 whole entry): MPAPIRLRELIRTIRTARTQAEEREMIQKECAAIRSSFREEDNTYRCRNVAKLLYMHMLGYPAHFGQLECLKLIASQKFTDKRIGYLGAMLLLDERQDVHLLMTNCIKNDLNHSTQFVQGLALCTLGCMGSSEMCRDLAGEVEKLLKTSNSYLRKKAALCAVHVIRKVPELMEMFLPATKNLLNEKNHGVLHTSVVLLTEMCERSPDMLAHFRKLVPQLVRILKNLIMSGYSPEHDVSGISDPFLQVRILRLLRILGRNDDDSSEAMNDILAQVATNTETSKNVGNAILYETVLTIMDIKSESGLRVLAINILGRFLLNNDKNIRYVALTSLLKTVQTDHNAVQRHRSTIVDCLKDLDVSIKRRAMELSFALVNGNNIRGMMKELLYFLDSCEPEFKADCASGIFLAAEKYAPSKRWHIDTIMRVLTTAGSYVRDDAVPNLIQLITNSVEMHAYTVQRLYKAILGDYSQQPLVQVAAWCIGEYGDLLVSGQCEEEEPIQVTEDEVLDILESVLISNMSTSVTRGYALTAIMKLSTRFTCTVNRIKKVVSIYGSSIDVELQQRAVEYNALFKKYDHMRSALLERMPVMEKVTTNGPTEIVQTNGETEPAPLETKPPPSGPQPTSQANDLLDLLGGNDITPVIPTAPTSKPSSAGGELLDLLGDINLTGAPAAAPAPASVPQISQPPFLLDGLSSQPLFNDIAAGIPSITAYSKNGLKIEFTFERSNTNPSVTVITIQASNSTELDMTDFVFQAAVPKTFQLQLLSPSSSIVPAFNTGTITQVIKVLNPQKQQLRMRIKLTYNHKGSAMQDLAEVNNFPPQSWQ
row,effect of a mutation on the interaction,Variant
1,with no effect,R9C

# Variants of: B5
# Settings: with ap2b1_human AP2B1, P63010
# Chain of ap2b1_human AP2B1, P63010 (P63010 whole entry): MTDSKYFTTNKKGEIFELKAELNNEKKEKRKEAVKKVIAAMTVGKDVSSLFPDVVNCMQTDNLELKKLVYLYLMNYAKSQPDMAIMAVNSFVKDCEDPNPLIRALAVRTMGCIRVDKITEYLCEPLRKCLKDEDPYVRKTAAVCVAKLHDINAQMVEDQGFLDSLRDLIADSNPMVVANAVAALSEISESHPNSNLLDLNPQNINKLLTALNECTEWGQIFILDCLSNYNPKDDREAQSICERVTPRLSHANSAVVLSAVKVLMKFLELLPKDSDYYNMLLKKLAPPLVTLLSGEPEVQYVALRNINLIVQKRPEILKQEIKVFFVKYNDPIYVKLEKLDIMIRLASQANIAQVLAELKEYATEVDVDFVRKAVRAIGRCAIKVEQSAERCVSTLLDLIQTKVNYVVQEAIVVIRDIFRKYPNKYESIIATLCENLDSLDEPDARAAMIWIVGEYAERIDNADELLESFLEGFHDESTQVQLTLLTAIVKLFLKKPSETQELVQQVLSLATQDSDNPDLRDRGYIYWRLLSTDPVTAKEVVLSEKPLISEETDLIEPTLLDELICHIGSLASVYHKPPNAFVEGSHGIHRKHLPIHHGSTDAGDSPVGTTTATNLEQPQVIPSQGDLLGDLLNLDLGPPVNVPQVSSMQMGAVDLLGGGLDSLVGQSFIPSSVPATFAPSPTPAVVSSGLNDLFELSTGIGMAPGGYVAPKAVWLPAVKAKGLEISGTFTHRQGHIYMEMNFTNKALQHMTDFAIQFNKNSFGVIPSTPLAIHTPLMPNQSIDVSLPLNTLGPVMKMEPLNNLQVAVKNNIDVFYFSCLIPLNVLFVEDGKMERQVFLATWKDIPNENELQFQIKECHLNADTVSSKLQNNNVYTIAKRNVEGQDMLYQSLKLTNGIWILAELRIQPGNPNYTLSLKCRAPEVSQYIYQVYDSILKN
row,effect of a mutation on the interaction,Variant
1,with no effect,T221M

# Variants of: B6
# Settings: with kra92_human KRTAP9-2, Q9BYQ4
row,effect of a mutation on the interaction,Variant
1,disrupting interaction strength,C16Y
